Changes are numbered by the printed parent chain. Read-outs that look alike come from different tables or passages of the source. Ends that are not written are not given here. * marks the point of attachment. Palmitoyl = CCCCCCCCCCCCCCCC(=O)*
Legend:
Experiment in all cases: cell-based or functional assay
human GLP-2 receptor [1] = biological target: T1, human GLP-2 receptor (human, UniProt O95838 1-553)
T1 sequence (looked up): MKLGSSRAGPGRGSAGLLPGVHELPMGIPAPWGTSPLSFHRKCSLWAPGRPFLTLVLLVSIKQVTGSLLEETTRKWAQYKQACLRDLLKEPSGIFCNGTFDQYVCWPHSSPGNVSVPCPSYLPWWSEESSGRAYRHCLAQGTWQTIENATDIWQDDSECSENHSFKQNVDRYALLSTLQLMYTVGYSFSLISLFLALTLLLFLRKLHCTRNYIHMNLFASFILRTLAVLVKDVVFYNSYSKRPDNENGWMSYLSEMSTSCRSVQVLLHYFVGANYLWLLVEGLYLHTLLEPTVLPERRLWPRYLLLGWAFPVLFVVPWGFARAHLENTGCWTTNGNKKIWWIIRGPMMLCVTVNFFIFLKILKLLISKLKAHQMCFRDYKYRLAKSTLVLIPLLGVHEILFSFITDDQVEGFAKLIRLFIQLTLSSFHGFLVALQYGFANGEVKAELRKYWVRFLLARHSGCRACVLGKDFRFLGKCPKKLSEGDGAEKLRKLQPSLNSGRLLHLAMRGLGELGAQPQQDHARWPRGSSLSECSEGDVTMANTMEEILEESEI

human GIP receptor [2] = biological target: T2, human GIP receptor (human, UniProt P48546 22-466)
T2 sequence (looked up): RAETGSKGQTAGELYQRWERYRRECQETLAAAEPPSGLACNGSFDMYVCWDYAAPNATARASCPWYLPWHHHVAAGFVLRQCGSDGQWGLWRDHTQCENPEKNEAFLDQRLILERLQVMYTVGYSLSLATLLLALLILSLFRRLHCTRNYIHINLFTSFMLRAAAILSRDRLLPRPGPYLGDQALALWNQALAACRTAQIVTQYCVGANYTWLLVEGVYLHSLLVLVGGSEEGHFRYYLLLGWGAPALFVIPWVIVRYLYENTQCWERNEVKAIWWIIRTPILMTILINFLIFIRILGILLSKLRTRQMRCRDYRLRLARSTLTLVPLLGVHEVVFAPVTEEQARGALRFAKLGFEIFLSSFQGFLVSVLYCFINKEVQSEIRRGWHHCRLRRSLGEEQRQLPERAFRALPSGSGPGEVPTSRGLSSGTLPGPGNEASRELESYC

human GLP-2 receptor [3] = biological target: T1, human GLP-2 receptor; remark: listed apart in the source
human GIP receptor [4] = biological target: T2, human GIP receptor; remark: listed apart in the source

B1: GIP-GLP-2 co-agonist 15 (peptide)
peptide: HADGTFISEYSTILDNLAARDFINWLIQTKITD
How did the “EC50 (cAMP)” value (human GLP-2 receptor [1]) turn out when B1 was run?
Its value is 6.7 nM.

What about the “Emax (10 µM), % of native GLP-2” value (human GLP-2 receptor [1]) of the same binder?
Its value is 104%.

And the “fold (EC50 vs native GLP-2)” value (human GLP-2 receptor [1])?
Its value is 5.6 fold.

What about the “logEC50 (cAMP)” value (human GLP-2 receptor [1]) of the same binder?
Its value is -8.18.

And the “EC50 (cAMP)” value (human GIP receptor [2])?
Its value is 3.2 nM.

And the “Emax (10 µM), % of native GIP” value (human GIP receptor [2])?
The value was 92%.

What about the “fold (EC50 vs native GIP)” value (human GIP receptor [2]) of the same binder?
The value was 36 fold.

What about the “logEC50 (cAMP)” value (human GIP receptor [2]) of the same binder?
Its value is -8.5.

B2: GIP-GLP-2 co-agonist 13 (peptide)
peptide: B1 peptide with I7S, E9D
What does the source list for B2?
EC50 (cAMP) (human GLP-2 receptor [1]): 11 nM; Emax (10 µM), % of native GLP-2 (human GLP-2 receptor [1]): 99%; fold (EC50 vs native GLP-2) (human GLP-2 receptor [1]): 9.2 fold; logEC50 (cAMP) (human GLP-2 receptor [1]): -7.95; EC50 (cAMP) (human GIP receptor [2]): 12 nM; Emax (10 µM), % of native GIP (human GIP receptor [2]): 91%; fold (EC50 vs native GIP) (human GIP receptor [2]): 135 fold; logEC50 (cAMP) (human GIP receptor [2]): -7.92

B3: GIP-GLP-2 co-agonist 6 (peptide)
peptide: B1 peptide with D3E, E9D, Y10M, S11N
Which “EC50 (cAMP)” value (human GLP-2 receptor [1]) does the source give for B3 here?
Its value is 60 nM.

What about the “Emax (10 µM), % of native GLP-2” value (human GLP-2 receptor [1]) of the same binder?
Its value is 70%.

And the “fold (EC50 vs native GLP-2)” value (human GLP-2 receptor [1])?
The value was 50 fold.

And the “logEC50 (cAMP)” value (human GLP-2 receptor [1])?
The value was -7.22.

What about the “EC50 (cAMP)” value (human GIP receptor [2]) of the same binder?
The value was 172 nM.

And the “Emax (10 µM), % of native GIP” value (human GIP receptor [2])?
The value was 83%.

And the “fold (EC50 vs native GIP)” value (human GIP receptor [2])?
The value was 1930 fold.

What about the “logEC50 (cAMP)” value (human GIP receptor [2]) of the same binder?
Its value is -6.77.

B4: GIP-GLP-2 co-agonist 11 (peptide)
peptide: B1 peptide with A2G, E9D
With B4 as the binder, how does the “EC50 (cAMP)” value (human GLP-2 receptor [1]) read?
Its value is 24 nM.

And the “Emax (10 µM), % of native GLP-2” value (human GLP-2 receptor [1])?
Its value is 87%.

And the “fold (EC50 vs native GLP-2)” value (human GLP-2 receptor [1])?
The value was 20 fold.

And the “logEC50 (cAMP)” value (human GLP-2 receptor [1])?
Its value is -7.62.

What about the “EC50 (cAMP)” value (human GIP receptor [2]) of the same binder?
The value was 3.2 nM.

And the “Emax (10 µM), % of native GIP” value (human GIP receptor [2])?
The value was 95%.

What about the “fold (EC50 vs native GIP)” value (human GIP receptor [2]) of the same binder?
The value was 36 fold.

What about the “logEC50 (cAMP)” value (human GIP receptor [2]) of the same binder?
The value was -8.5.

B5: GIP-GLP-2 co-agonist 16 (peptide)
peptide: B1 peptide with E9D, I31G
How did the “EC50 (cAMP)” value (human GLP-2 receptor [1]) turn out when B5 was run?
The value was 82 nM.

What about the “Emax (10 µM), % of native GLP-2” value (human GLP-2 receptor [1]) of the same binder?
The value was 74%.

And the “fold (EC50 vs native GLP-2)” value (human GLP-2 receptor [1])?
Its value is 68 fold.

And the “logEC50 (cAMP)” value (human GLP-2 receptor [1])?
Its value is -7.06.

What about the “EC50 (cAMP)” value (human GIP receptor [2]) of the same binder?
Its value is 0.6 nM.

What about the “Emax (10 µM), % of native GIP” value (human GIP receptor [2]) of the same binder?
Its value is 95%.

And the “fold (EC50 vs native GIP)” value (human GIP receptor [2])?
The value was 6.7 fold.

And the “logEC50 (cAMP)” value (human GIP receptor [2])?
Its value is -9.22.

B6: GIP-GLP-2 co-agonist 21 (peptide)
peptide: HADGTFSSDYSTILDNLAAK(Palmitoyl)DFINWLIQTKITD
For B6, which “EC50 (cAMP)” value (human GLP-2 receptor [3]) is on record?
The value was 6 nM.

And the “Emax (10 µM), % of native GLP-2” value (human GLP-2 receptor [3])?
The value was 75%.

What about the “fold (EC50 vs native GLP-2)” value (human GLP-2 receptor [3]) of the same binder?
Its value is 5 fold.

What about the “logEC50 (cAMP)” value (human GLP-2 receptor [3]) of the same binder?
Its value is -8.22.

And the “EC50 (cAMP)” value (human GIP receptor [4])?
The value was 34 nM.

What about the “Emax (10 µM), % of native GIP” value (human GIP receptor [4]) of the same binder?
Its value is 94%.

And the “fold (EC50 vs native GIP)” value (human GIP receptor [4])?
The value was 381 fold.

And the “logEC50 (cAMP)” value (human GIP receptor [4])?
The value was -7.47.

B7: GIP-GLP-2 co-agonist 7 (peptide)
peptide: HAEGTFISDYSIAMDKLAARDFINWLIQTKITD
B7 was tested. Which “EC50 (cAMP)” value (human GLP-2 receptor [1]) did it give?
Its value is 351 nM.

What about the “Emax (10 µM), % of native GLP-2” value (human GLP-2 receptor [1]) of the same binder?
The value was 78%.

What about the “fold (EC50 vs native GLP-2)” value (human GLP-2 receptor [1]) of the same binder?
Its value is 293 fold.

What about the “logEC50 (cAMP)” value (human GLP-2 receptor [1]) of the same binder?
Its value is -6.45.

What about the “EC50 (cAMP)” value (human GIP receptor [2]) of the same binder?
Its value is 26 nM.

And the “Emax (10 µM), % of native GIP” value (human GIP receptor [2])?
Its value is 92%.

What about the “fold (EC50 vs native GIP)” value (human GIP receptor [2]) of the same binder?
The value was 292 fold.

What about the “logEC50 (cAMP)” value (human GIP receptor [2]) of the same binder?
The value was -7.59.

B8: human native GLP-2 (ligand)
peptide: HADGSFSDEMNTILDNLAARDFINWLIQTKITD
How did the “EC50 (cAMP)” value (human GIP receptor [4]) turn out when B8 was run?
The value was 56 nM.

What about the “Emax (10 µM), % of native GIP” value (human GIP receptor [4]) of the same binder?
Its value is 22%.

And the “logEC50 (cAMP)” value (human GIP receptor [4])?
Its value is -7.25.

And the “EC50 (cAMP)” value (human GIP receptor [2])?
Its value is 56 nM.

What about the “Emax (10 µM), % of native GIP” value (human GIP receptor [2]) of the same binder?
The value was 22%.

What about the “logEC50 (cAMP)” value (human GIP receptor [2]) of the same binder?
Its value is -7.25.

B9: GIP-GLP-2 co-agonist 5 (peptide)
peptide: B1 peptide with D3E, I7S, S8D
Which results are given for B9?
EC50 (cAMP) (human GLP-2 receptor [1]): 6.2 nM; Emax (10 µM), % of native GLP-2 (human GLP-2 receptor [1]): 91%; fold (EC50 vs native GLP-2) (human GLP-2 receptor [1]): 5.2 fold; logEC50 (cAMP) (human GLP-2 receptor [1]): -8.21; EC50 (cAMP) (human GIP receptor [2]): 456 nM; Emax (10 µM), % of native GIP (human GIP receptor [2]): 75%; fold (EC50 vs native GIP) (human GIP receptor [2]): 5120 fold; logEC50 (cAMP) (human GIP receptor [2]): -6.34

B10: GIP-GLP-2 co-agonist 8 (peptide)
peptide: HAEGTFISDYSTILDNIHQQDFINWLIQTKITD
B10 was tested. Which “Emax (10 µM), % of native GLP-2” value (human GLP-2 receptor [1]) did it give?
The value was 22%.

And the “logEC50 (cAMP)” value (human GLP-2 receptor [1])?
Its value is > -5.

What about the “EC50 (cAMP)” value (human GIP receptor [2]) of the same binder?
The value was 5.9 nM.

What about the “Emax (10 µM), % of native GIP” value (human GIP receptor [2]) of the same binder?
Its value is 100%.

And the “fold (EC50 vs native GIP)” value (human GIP receptor [2])?
Its value is 66 fold.

And the “logEC50 (cAMP)” value (human GIP receptor [2])?
Its value is -8.23.

B11: GIP-GLP-2 co-agonist 10 (peptide)
peptide: HAEGTFISDYSTILDNLAARDFINWLIQTKGKK
For B11, which “EC50 (cAMP)” value (human GLP-2 receptor [1]) is on record?
The value was 22 nM.

And the “Emax (10 µM), % of native GLP-2” value (human GLP-2 receptor [1])?
Its value is 77%.

What about the “fold (EC50 vs native GLP-2)” value (human GLP-2 receptor [1]) of the same binder?
The value was 18 fold.

What about the “logEC50 (cAMP)” value (human GLP-2 receptor [1]) of the same binder?
The value was -7.66.

What about the “EC50 (cAMP)” value (human GIP receptor [2]) of the same binder?
The value was 5.4 nM.

What about the “Emax (10 µM), % of native GIP” value (human GIP receptor [2]) of the same binder?
The value was 100%.

What about the “fold (EC50 vs native GIP)” value (human GIP receptor [2]) of the same binder?
The value was 61 fold.

What about the “logEC50 (cAMP)” value (human GIP receptor [2]) of the same binder?
The value was -8.27.
